The values below come from patent US20100266532A1, “METHODS FOR INHIBITING SCARRING” (Renovo Limited, priority 2007, published 2010).

The test system of test [1] is 1 cm incisional rat wounds. The test is described as follows: Reduction in scarring of rat wounds treated with IL-10 in two incidences of treatment. The format is in vivo. The following applies: for percentage reduction in scarring compared to placebo control: approximately 24 hours apart. Here is the method: FIG. 13 is a graph showing the percentage reduction in scarring, as compared to placebo control, achieved in scars formed on healing of 1 cm incisional rat wounds treated with IL-10 administered by means of intradermal injection in two incidences of treatment, the first prior to wounding and the second approximately 24 hours later. Wounds dosed with IL-10 received either two injections of 500 ng/100 μl IL-10, two injections of 1000 ng/100 μl IL-10, or an escalating dose regime in accordance with the present invention, in which the first injection comprised 500 ng/100 μl IL-10 and the second injection comprised 1000 ng/100 μl IL-10.
Arrow heads mark the ends of the scars 70 days post wounding.

Test [2] deals with inflammatory cells in 1 cm incisional rat wounds. Briefly: Percentage of inflammatory cells (CD68 staining) in rat wounds. The format is in vivo. The following applies: 3 days post treatment. The text has this: Wounds were excised from the experimental rats at 3 days post treatment, fixed in 10% (v/v) buffered formal saline, processed for histology and stained with CD68 to assess inflammatory cell numbers.

B1: IL-10: interleukin-10, anti-scarring agent; amino acid sequence of human IL-10 in Sequence ID No. 3 (protein, listed as Homo sapiens)
chain: MSPGQGTQSENSCTHFPGNLPNMLRDLRDAFSRVKTFFQMKDQLDNLLLKESLLEDFKGYLGCQALSEMIQFYLEEVMPQAENQDPDIKAHVNSLGENLKTLRLRLRRCHRFLPCENKSKAVEQVKNAFNKLQEKGIYKAMSEFDIFINYIEAYMTMKIRN
As for B1, the “inhibition of scarring, macroscopic images” value in test [1] (escalating 500 then 1000 ng/100 μl versus 500 ng/100 μl twice, 70 days post wounding) was “greater inhibition of scarring”. The “reduction in scarring versus constant doses” value in test [1] (escalating: 500 ng/100 μl then 1000 ng/100 μl approximately 24 hours later) was “much larger magnitude of effect”. Besides, the figures for the “percentage reduction in scarring compared to placebo control” value in test [1] (two injections of 500 ng/100 μl) and in test [1] (two injections of 1000 ng/100 μl) were 27.5% and 22.8%, respectively. In test [2], the “infiltration of inflammatory cells into the wound compared to controls” value is “reduces infiltration of inflammatory cells”. Besides, the “inflammatory cell numbers versus same dose given twice” value in test [2] (escalating: 500 ng/100 μl then 1000 ng/100 μl) is recorded as “surprisingly marked decrease in inflammatory cell numbers”.
